± gives the uncertainty stated by the source.
Test: amyloid nucleation score (Sup35N fusion, yeast selection) (log enrichment); library NNK1; higher = more nucleation; inactive = no reads after selection
In short: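 Nucleation score is defined as the DiMSum log enrichment of output over input reads, with centring on the mode score of non-aggregating sequences. A minimum of 100 input reads was required for each sequence. Reads came from Illumina sequencing of plasmid inserts from psi-negative yeast expressing Sup35N fused to peptides of 20 random codons, induced with 100 μM copper sulfate for 24 hours and grown 7 days at 30°C on medium lacking adenine and uracil.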

Substance | amyloid nucleation score
LWLLYVIECHLGCYRTVLMG | -0.385 ± 0.93
LWMFRFNYYDVLPCGMPGLC | 0.694 ± 0.66
LWSLDSDSCKVLGDSGCGFF | 0.133 ± 0.34
LWSTMICLVFMYPIILVNFT | 1.64 ± 0.36
LWVVPLE | -0.643 ± 1.9
LWYSFNVHTVHYYQCSDIYS | -0.142 ± 0.26
LYETMTCFWMRLWSFCGSPA | -0.033 ± 0.69
LYFGNTGKGNFRQVSRLKHS | 0.116 ± 0.73
LYFITTM | 1.18 ± 0.59
LYGFLICLCDSYVRGH | 0.213 ± 0.49
LYGNT | 1.37 ± 0.38
LYIRSIACGSSLLFLAVLNC | -0.856 ± 1.1
LYITVIVHNWVLGWKRVLLE | 1.64 ± 0.71
LYLDIWYCQIKVTFIGP | inactive
LYLNADLYYE | 0.005 ± 0.7
LYNSGSTLI | 0.342 ± 0.61
LYNTITRDTTPHGVEN | -1.84 ± 2.7
LYRAAEYSLRILRLKATYPA | -0.134 ± 0.89
LYSAGRCYARSCVKL | 0.829 ± 0.27
LYVTLV | 2.23 ± 0.17
LYWNVVN | -0.578 ± 0.5
MALLRLDIITFRNESCSEPN | -0.046 ± 0.26
MALMYLMVTRVDLALSL | 0.072 ± 0.34
MASRHKEWRCVMYEHGLRAC | 0.58 ± 1.2

Substance | amyloid nucleation score
MAVERLGSQVERDIRGWWRV | 0.063 ± 0.59
MCCCLDDEGDHLNWFKRLRC | 1.52 ± 0.49
MCDCLPPCDSGWNFFEWGWE | -0.131 ± 0.69
MCDYFYNIVFVKCCALWCLD | 4.01 ± 0.069
MCTLDLD | 0.824 ± 0.54
MDTVFSFYVIIPVQFSCVAL | 3 ± 0.13
MDWNQGVAGATMIYLCFNNN | 7.881 ± 0.064
MEFISFTWLKYSYMYSDVFS | inactive
MERDEFKFLGERLGWLSCWR | 1.04 ± 0.57
MEVISRSVLSSLSWFGTVEE | 0.598 ± 0.5
MFCFKGHQSRDLRTFDYIW | 0.1 ± 0.27
MFCLALECEVHLGMHYYNHA | 0.906 ± 0.2
MFGQWMAPHQTRFGSGQFGW | -0.038 ± 0.38
MFRCFSDTKSNRTFCFMHTC | -0.143 ± 0.56
MFSYDFGMCGFYN | 0.971 ± 0.29
MGAIFCNGSK | 0.371 ± 0.67
MGCWCLASRDLTKT | -0.485 ± 1
MGFDLSRRTCLYYLVTLSW | 0.014 ± 1.1
MGLQTFVVTRMV | -0.758 ± 0.42
MGMGNVYAIQFCPMILWD | 6.783 ± 0.057
MGNTLITLIVGSGAL | 3.44 ± 0.18
MGPMCSQPLHVPSMVSMVTL | 0.735 ± 0.35
MGVVQCAKRQQRLLMQLTVL | 0.054 ± 0.93
MHPFVRSEK | 0.168 ± 0.36

Substance | amyloid nucleation score
MHRESR | 1.2 ± 0.36
MHWFRVN | 0.324 ± 0.3
MICAQSVS | 0.991 ± 0.24
MICMD | -0.27 ± 0.3
MIDRRKSLVEGRGRNCVSGC | -0.646 ± 1.1
MIKYYYGSGTLS | -0.429 ± 0.34
MILHLDVSISIVLD | 1.58 ± 0.15
MIRFKQT | -0.651 ± 0.45
MIRQYDCSVFKCRERYFWAF | 0.675 ± 0.85
MISIS | 0.088 ± 0.26
MISMFSLFLIRMIM | -0.052 ± 0.54
MITIRVLEQDHLSLSLALSY | -0.597 ± 0.57
MIVYNMFGMNYYLFILDG | 7.508 ± 0.048
MKAGFHYYLVMLVRKE | 0.265 ± 0.31
MKFFRRFYREYF | -0.431 ± 1
MKLMKPGTLSSWCFFDSSGV | 0.016 ± 0.51
MKMNDYMGVRDWVHLIDVCS | inactive
MKSCASDPVCCPQTTRSTSL | 0.742 ± 0.49
MKTMRKW | inactive
MKVRQDRKPYWVAESAMCVC | -0.261 ± 0.59
MLEVKPLTCMVSPIYDFMPG | -0.134 ± 0.41
MLGSYLHVDSGNCTKVLRTV | 0.326 ± 0.41
MLISSILTYIKVSGYCPGCT | 0.347 ± 0.52
MLLIRNFQFTTLFVCHFSAE | -0.038 ± 0.16
